Measurements taken from paper doi:10.1101/2020.07.27.223107 (bioRxiv, 2020).

Molecular target: the molecule itself
Assay: SEC-MALLS

B1: full-length human SNED1 (Sushi, nidogen and EGF-like domain-containing protein 1), FLAG-tagged (natural protein, UniProt Q8TER0 25-1413, looked up)
chain: AVALADFYPFGAERGDAVTPKQDDGGSGLRPLSVPFPFFGAEHSGLYVNNNGIISFLKEVSQFTPVAFPIAKDRCVVAAFWADVDNRRAGDVYYREATDPAMLRRATEDVRHYFPELLDFNATWVFVATWYRVTFFGGSSSSPVNTFQTVLITDGKLSFTIFNYESIVWTTGTHASSGGNATGLGGIAAQAGFNAGDGQRYFSIPGSRTADMAEVETTTNVGVPGRWAFRIDDAQVRVGGCGHTTSVCLALRPCLNGGKCIDDCVTGNPSYTCSCLSGFTGRRCHLDVNECASQPCQNGGTCTHGINSFRCQCPAGFGGPTCETAQSPCDTKECQHGGQCQVENGSAVCVCQAGYTGAACEMDVDDCSPDPCLNGGSCVDLVGNYTCLCAEPFKGLRCETGDHPVPDACLSAPCHNGGTCVDADQGYVCECPEGFMGLDCRERVPDDCECRNGGRCLGANTTLCQCPLGFFGLLCEFEITAMPCNMNTQCPDGGYCMEHGGSYLCVCHTDHNASHSLPSPCDSDPCFNGGSCDAHDDSYTCECPRGFHGKHCEKARPHLCSSGPCRNGGTCKEAGGEYHCSCPYRFTGRHCEIGKPDSCASGPCHNGGTCFHYIGKYKCDCPPGFSGRHCEIAPSPCFRSPCVNGGTCEDRDTDFFCHCQAGYMGRRCQAEVDCGPPEEVKHATLRFNGTRLGAVALYACDRGYSLSAPSRIRVCQPHGVWSEPPQCLEIDECRSQPCLHGGSCQDRVAGYLCLCSTGYEGAHCELERDECRAHPCRNGGSCRNLPGAYVCRCPAGFVGVHCETEVDACDSSPCQHGGRCESGGGAYLCVCPESFFGYHCETVSDPCFSSPCGGRGYCLASNGSHSCTCKVGYTGEDCAKELFPPTALKMERVEESGVSISWNPPNGPAARQMLDGYAVTYVSSDGSYRRTDFVDRTRSSHQLQALAAGRAYNISVFSVKRNSNNKNDISRPAVLLARTRPRPVEGFEVTNVTASTISVQWALHRIRHATVSGVRVSIRHPEALRDQATDVDRSVDRFTFRALLPGKRYTIQLTTLSGLRGEEHPTESLATAPTHVWTRPLPPANLTAARVTATSAHVVWDAPTPGSLLEAYVINVTTSQSTKSRYVPNGKLASYTVRDLLPGRRYQLSVIAVQSTELGPQHSEPAHLYIITSPRDGADRRWHQGGHHPRVLKNRPPPARLPELRLLNDHSAPETPTQPPRFSELVDGRGRVSARFGGSPSKAATVRSQPTASAQLENMEEAPKRVSLALQLPEHGSKDIGNVPGNCSENPCQNGGTCVPGADAHSCDCGPGFKGRRCELACIKVSRPCTRLFSETKAFPVWEGGVCHHVYKRVYRVHQDICFKESCESTSLKKTPNRKQSKSQTLEKS
modifications: N-glycosylated; phosphorylated on serine and threonine residues (sites not mapped)
- stoichiometry N: 2

B2: N-terminal fragment of human SNED1 (amino acids 1 to 260, includes the NIDO domain), FLAG-tagged (domain or fragment, UniProt Q8TER0 25-260, looked up)
chain: AVALADFYPFGAERGDAVTPKQDDGGSGLRPLSVPFPFFGAEHSGLYVNNNGIISFLKEVSQFTPVAFPIAKDRCVVAAFWADVDNRRAGDVYYREATDPAMLRRATEDVRHYFPELLDFNATWVFVATWYRVTFFGGSSSSPVNTFQTVLITDGKLSFTIFNYESIVWTTGTHASSGGNATGLGGIAAQAGFNAGDGQRYFSIPGSRTADMAEVETTTNVGVPGRWAFRIDDAQV
modifications: N-glycosylated; phosphorylated on serine and threonine residues (sites not mapped)
- stoichiometry N: 2
